Source: the supplement of paper PMC9732359
± gives the uncertainty stated by the source.

Assay: protein stability index of a GFP-peptide fusion (yeast GPS) (PSI 1-4); higher = more stable; sorted into four equal gates, so the index is relative within each strain
Outline: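 Mid-log yeast cultures in leucine-free medium, carrying a pooled plasmid library, were sorted into four equal gates by their GFP/Cherry fluorescence ratio. Each plasmid expressed Cherry along with GFP fused upstream of a tiled 17-residue yeast protein peptide. Plasmids recovered from each gate were PCR-amplified and Illumina-sequenced, with reads assigned to strains by barcodes. The protein stability index was obtained by summing each gate's read frequency weighted by its gate number.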

Row | Sequence | protein stability index (doa10∆) | protein stability index (pdr5∆) | protein stability index (san1∆) | protein stability index (ubr1∆)
1 | ATQMTLNTFHFAGVASK [RPO21] | 1.89 ± 0.11 | 1.9 ± 0.076 | 2 ± 0.22 | 2.32 ± 0.14
2 | AASFKKLYKTPIPIPAF [PRE10] | 2.54 ± 0.14 | 3.15 ± 0.12 | 2.75 ± 0.079 | 3 ± 0.12
3 | KRCMDDLNPLKTLNLFK [RPO31] | 2.98 ± 0.15 | 2.99 ± 0.074 | 2.69 ± 0.12 | 2.92 ± 0.064
4 | WDLVDERTKQRTAKAYL [PRP8] | 3.18 ± 0.12 | 3.6 ± 0.23 | 3.09 ± 0.074 | 3.1 ± 0.1
5 | TRYELYIKNILEAPVKS [YLR335W/NUP2] | 1.67 ± 0.045 | 2.1 ± 0.054 | 1.66 ± 0.087 | 1.56 ± 0.057
6 | TATGIKVFSLDPQYLVD [ASC1] | 2.52 ± 0.049 | 2.67 ± 0.044 | 2.89 ± 0.039 | 2.58 ± 0.032
7 | PLASEESLTNSNMFDNS [YGL100W/SEH1] | 3.38 ± 0.18 | 3.02 ± 0.19 | 3.07 ± 0.12 | 3.29 ± 0.086
8 | GSEIAISSLGYRSHIFA [SWI3] | 2.63 ± 0.057 | 2.27 ± 0.048 | 2.45 ± 0.051 | 2.34 ± 0.045
9 | ICQIISSTITGDVVLAA [RPL5] | 2.84 ± 0.063 | 1.89 ± 0.058 | 2.31 ± 0.069 | 3.06 ± 0.099
10 | DSIPYPQIVKLFDISRE [ECM29] | 1.65 ± 0.065 | 1.3 ± 0.057 | 1.23 ± 0.073 | 2.08 ± 0.039
11 | FLDYTTDNVSMYPSPTG [PRP8] | 2.85 ± 0.056 | 2.85 ± 0.06 | 2.7 ± 0.06 | 2.95 ± 0.057
12 | VLVLHGDKDTRADIVRN [ISW2] | 3.02 ± 0.063 | 3.17 ± 0.063 | 2.9 ± 0.078 | 3.06 ± 0.054
13 | PGRLDRKIEFPSLRDRR [RPT3] | 3.35 ± 0.044 | 3.31 ± 0.061 | 3.23 ± 0.048 | 3.23 ± 0.039
14 | LYVDSESTSSTEEVEAL [MTW1] | 2.92 ± 0.11 | 3.76 ± 0.15 | 3.14 ± 0.19 | 3.24 ± 0.11
15 | DEGGAKSLLLNTLNIDN [BRN1] | 3.19 ± 0.077 | 3.16 ± 0.097 | 3.1 ± 0.083 | 3.38 ± 0.075
16 | DEFIKTHEDLPKEVDGL [IRR1] | 3.2 ± 0.081 | 3.29 ± 0.094 | 3.04 ± 0.078 | 3.21 ± 0.067
17 | LQKVENQTIKEAKDAII [YIL149C/MLP2] | 3.05 ± 0.046 | 3.18 ± 0.047 | 3.04 ± 0.045 | 3.13 ± 0.034
18 | NVDYYNVAHRIKEDIKK [SNF2] | 3.32 ± 0.065 | 3.17 ± 0.066 | 3.11 ± 0.04 | 3.02 ± 0.046
19 | YKKIPLLGPTLEDHTPP [QCR10] | 2.34 ± 0.05 | 2.59 ± 0.057 | 2.42 ± 0.083 | 2.76 ± 0.029
20 | LISRMIFIATQLEKKIR [BRR2] | 1.75 ± 0.075 | 1.9 ± 0.059 | 1.28 ± 0.12 | 2.03 ± 0.054
21 | QQTGLVDAITRCYQPFE [SNU114] | 2.53 ± 0.069 | 2.76 ± 0.056 | 3.04 ± 0.041 | 2.98 ± 0.05
22 | SILPTRDDLFVRNLQGI [NUT1] | 1.69 ± 0.094 | 2.19 ± 0.11 | 2.05 ± 0.15 | 1.56 ± 0.058
23 | RDYSKEILGINLANEQP [SIR4] | 2.71 ± 0.048 | 3.04 ± 0.044 | 3.07 ± 0.039 | 3.02 ± 0.036
24 | LEIAKDFQPTELFDILS [IRR1] | 3.07 ± 0.13 | 2.33 ± 0.11 | 2.8 ± 0.079 | 3.08 ± 0.086
25 | LNLNNSELQPQNRSLQE [SNF2] | 3.24 ± 0.046 | 3.31 ± 0.057 | 3.31 ± 0.08 | 3.27 ± 0.055
26 | LEKIHSIEVQSLPEFFT [SWI3] | 2.69 ± 0.074 | 2.53 ± 0.073 | 2.43 ± 0.12 | 2.52 ± 0.069
27 | SGTSSDPDTKKVKESPA [YIL149C/MLP2] | 3.21 ± 0.059 | 3.2 ± 0.046 | 3.14 ± 0.038 | 3.23 ± 0.061

Row | Sequence | protein stability index (doa10∆) | protein stability index (pdr5∆) | protein stability index (san1∆) | protein stability index (ubr1∆)
28 | SRCHLVTKDTKKYSSKN [SRP68] | 3.04 ± 0.092 | 2.8 ± 0.1 | 2.65 ± 0.11 | 3.12 ± 0.072
29 | YSALNSTYLPKLISAFD [RRP42] | 2.69 ± 0.068 | 2.41 ± 0.06 | 2.57 ± 0.06 | 2.39 ± 0.055
30 | ATALQTCAGGRLFNVVV [SMC2] | 2.63 ± 0.12 | 2.9 ± 0.13 | 3.13 ± 0.15 | 2.12 ± 0.15
31 | GCENPADVFRRCLVAVI [SRP72] | 1.93 ± 0.055 | 1.48 ± 0.048 | 2.29 ± 0.088 | 1.98 ± 0.077
32 | SSQPLEPLSDTEEPDLA [DSN1] | 2.74 ± 0.062 | 2.69 ± 0.06 | 3.25 ± 0.037 | 2.36 ± 0.07
33 | RSKNLIFNGETLEDALR [GRR1] | 2.92 ± 0.093 | 2.58 ± 0.054 | 2.65 ± 0.057 | 2.77 ± 0.07
34 | KTAIEGSYIDKKCPFTG [RPS11A] | 3.12 ± 0.069 | 3.37 ± 0.075 | 3.08 ± 0.051 | 3.27 ± 0.036
35 | SLHILMIFWNDICQIDT [SRB8] | 1.36 ± 0.031 | 1.33 ± 0.032 | 1.52 ± 0.053 | 1.92 ± 0.029
36 | LEALRQNYRLDGRSFDQ [RRP45] | 2.43 ± 0.11 | 1.97 ± 0.12 | 1.61 ± 0.14 | 2.81 ± 0.086
37 | LKGLNGFPSAPQPLFME [YMR153W/NUP53] | 2.53 ± 0.067 | 3.04 ± 0.066 | 2.85 ± 0.067 | 2.69 ± 0.062
38 | AKIDVMLTIARLGFFYN [RPN7] | 2.44 ± 0.15 | 2.89 ± 0.14 | 3.42 ± 0.14 | 3.14 ± 0.094
39 | NDIFERIATEASKLAAY [HTB1] | 1.93 ± 0.23 | 1.34 ± 0.11 | 1.19 ± 0.17 | 1.34 ± 0.24
40 | AHLWQKIHESIVFDICQ [PRP8] | 2.56 ± 0.09 | 2.69 ± 0.11 | 2.27 ± 0.13 | 2.39 ± 0.098
41 | RNVGKTLVNKSTGLKSA [RPS1A] | 2.81 ± 0.098 | 2.72 ± 0.097 | 2.59 ± 0.12 | 2.96 ± 0.086
42 | DLPETGFFENIETEFLL [IRR1] | 3.13 ± 0.075 | 3.18 ± 0.1 | 3.22 ± 0.047 | 3.13 ± 0.066
43 | SPPIIDLFSNNNYNSRI [MED1] | 2.86 ± 0.071 | 2.92 ± 0.076 | 2.86 ± 0.062 | 2.94 ± 0.056
44 | KCGVISPRFNVKIGDIE [RPS22A] | 3.28 ± 0.1 | 3.35 ± 0.093 | 2.78 ± 0.11 | 3.43 ± 0.079
45 | VYESEMEQCKQRYQDLS [YIL149C/MLP2] | 3.27 ± 0.09 | 3.36 ± 0.11 | 3.03 ± 0.081 | 3.24 ± 0.094
46 | YINDVHLLYPPHIIAVA [SSN8] | 1.74 ± 0.057 | 1.46 ± 0.041 | 2.15 ± 0.072 | 1.67 ± 0.065
47 | YINVSRGTDIDRINYTE [SRB5] |  |  |  | 3.02 ± 0.22
48 | KHKKKHLKHENANDETT [RPB4] | 2.92 ± 0.053 | 2.84 ± 0.085 | 2.84 ± 0.11 | 3.19 ± 0.074
49 | FNDFSNIKTSEWDLYPQ [REC8] | 2.84 ± 0.082 | 2.92 ± 0.053 | 2.78 ± 0.075 | 3.15 ± 0.082
50 | RAHGRINKYESSPSHIE [RPL17A] | 2.9 ± 0.07 | 3.4 ± 0.077 | 2.99 ± 0.08 | 3.17 ± 0.061
51 | ALSAYHKVQTKLTRELE [RPS7B] | 2.4 ± 0.055 | 2.54 ± 0.058 | 2.33 ± 0.065 | 2.58 ± 0.043
52 | SPEESKARSPGIAKPNA [SIR4] | 3.48 ± 0.075 | 3.42 ± 0.09 | 3.09 ± 0.091 | 3.38 ± 0.066
53 | KAPLEDDDKKPDDDKIV [RPT1] | 2.67 ± 0.15 | 3.11 ± 0.17 | 3.19 ± 0.14 | 3.26 ± 0.067
54 | ILGELKRVKSYMDKAKQ [LRP1] | 2.23 ± 0.079 | 2.35 ± 0.082 | 1.89 ± 0.12 | 2.36 ± 0.065
